Data reported in US20100129369A1 (Eli Lilly, published 2010).
One block for each binder: values may come before it.

Columns and labels:
human c-Met [1] = target: T1, human c-Met (human, UniProt P08581 25-1390); experiment: cell-based or functional assay
human c-Met [2] = target: T1, human c-Met; experiment: cell-based or functional assay; remark: listed apart in the source
human c-Met [3] = target: T1, human c-Met; experiment: cell-based or functional assay; remark: listed apart in the source
human c-Met [4] = target: T1, human c-Met; experiment: cell-based or functional assay; remark: listed apart in the source
human c-Met [5] = target: T1, human c-Met; experiment: cell-based or functional assay; remark: listed apart in the source
Rat c-Met-Flis-Fc ECD = target: T2, Rat c-Met-Flis-Fc ECD (rat); experiment: SPR (Biacore), antibody captured
T2 construct: also called Rat cMet-ECD-Fc-Flis; rat c-Met ECD
T2 sequence (chain, as listed by the source limits assumed): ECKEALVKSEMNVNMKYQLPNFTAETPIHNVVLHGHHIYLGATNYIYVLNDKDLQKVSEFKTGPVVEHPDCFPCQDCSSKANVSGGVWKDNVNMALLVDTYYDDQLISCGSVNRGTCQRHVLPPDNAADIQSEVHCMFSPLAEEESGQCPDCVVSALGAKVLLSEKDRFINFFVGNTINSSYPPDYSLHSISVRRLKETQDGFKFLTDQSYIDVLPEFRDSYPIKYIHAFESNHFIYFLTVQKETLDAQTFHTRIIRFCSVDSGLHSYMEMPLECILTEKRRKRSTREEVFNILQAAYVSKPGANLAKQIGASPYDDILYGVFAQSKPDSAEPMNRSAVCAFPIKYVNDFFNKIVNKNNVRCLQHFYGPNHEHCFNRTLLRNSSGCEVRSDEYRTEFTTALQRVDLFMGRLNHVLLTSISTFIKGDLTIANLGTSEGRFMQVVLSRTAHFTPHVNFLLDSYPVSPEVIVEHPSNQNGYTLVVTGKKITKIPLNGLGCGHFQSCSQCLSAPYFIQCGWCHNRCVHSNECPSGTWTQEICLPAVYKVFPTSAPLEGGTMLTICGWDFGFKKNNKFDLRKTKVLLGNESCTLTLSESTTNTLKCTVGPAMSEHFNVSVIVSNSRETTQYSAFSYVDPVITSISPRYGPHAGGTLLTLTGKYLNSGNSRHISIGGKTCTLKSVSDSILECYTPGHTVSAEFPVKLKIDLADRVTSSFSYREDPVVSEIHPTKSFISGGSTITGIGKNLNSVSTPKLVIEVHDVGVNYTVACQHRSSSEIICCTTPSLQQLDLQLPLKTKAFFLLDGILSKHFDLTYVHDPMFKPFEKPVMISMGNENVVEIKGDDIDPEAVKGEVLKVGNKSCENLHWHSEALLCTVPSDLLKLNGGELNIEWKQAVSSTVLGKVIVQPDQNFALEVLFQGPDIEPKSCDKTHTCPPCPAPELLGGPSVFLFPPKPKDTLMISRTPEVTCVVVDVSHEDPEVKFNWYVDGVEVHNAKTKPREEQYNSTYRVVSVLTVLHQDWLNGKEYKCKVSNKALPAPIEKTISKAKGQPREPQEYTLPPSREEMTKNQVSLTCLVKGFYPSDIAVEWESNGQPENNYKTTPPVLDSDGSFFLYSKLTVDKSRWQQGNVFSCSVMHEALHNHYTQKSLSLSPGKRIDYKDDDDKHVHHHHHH
Method: (§1) A Biacore® 2000 instrument is used to measure the binding kinetics of c-Met antibodies to human, cynomolgus monkey, and rat c-Met ECDs. Measurements are performed at 25° C. Samples are dissolved in HBS-EP buffer (150 mM sodium chloride, 3 mM EDTA, 0.005% (w/v) surfactant P-20, and 10 mM N-2-hydroxyethylpiperazine-N′-2-ethanesulfonic acid (HEPES) at pH 7.4; #BR-1001-88).
(§2) Binding is evaluated using multiple cycles. Each cycle is performed at a flow rate of 50 μL/min., and consists of the following steps: injection of about 10 μL of a c-Met antibody at 10 μg/mL aiming at a capture of 40-100 RUs, injection of 250 μL of human, cynomolgus, or rat c-Met-Flis-Fc ECD (starting at 100 nM and using two-fold serial dilutions for each cycle) followed by 20 min. for dissociation, and regeneration using about 30 μL of 10 mM glycine hydrochloride, pH 1.5. Association and dissociation rates for each cycle are evaluated using a “1:1 (Langmuir) binding” model in the BIAevaluation software, version 4.1.

mouse c-Met ECD = target: T3, mouse c-Met ECD (mouse, UniProt P16056 25-931); experiment: ELISA, coated ECD (data not shown)
T3 construct: extracellular domain

Human c-Met-Flis-Fc ECD [6] = target: T4, Human c-Met-Flis-Fc ECD (human); experiment: ELISA, coated ECD-Fc, antibody 0.000 ng/mL
T4 construct: also called human c-Met extracellular domain (ECD)-Fc-Flis fusion; Human cMet-ECD-Fc-Flis
T4 sequence (chain, as listed by the source limits assumed): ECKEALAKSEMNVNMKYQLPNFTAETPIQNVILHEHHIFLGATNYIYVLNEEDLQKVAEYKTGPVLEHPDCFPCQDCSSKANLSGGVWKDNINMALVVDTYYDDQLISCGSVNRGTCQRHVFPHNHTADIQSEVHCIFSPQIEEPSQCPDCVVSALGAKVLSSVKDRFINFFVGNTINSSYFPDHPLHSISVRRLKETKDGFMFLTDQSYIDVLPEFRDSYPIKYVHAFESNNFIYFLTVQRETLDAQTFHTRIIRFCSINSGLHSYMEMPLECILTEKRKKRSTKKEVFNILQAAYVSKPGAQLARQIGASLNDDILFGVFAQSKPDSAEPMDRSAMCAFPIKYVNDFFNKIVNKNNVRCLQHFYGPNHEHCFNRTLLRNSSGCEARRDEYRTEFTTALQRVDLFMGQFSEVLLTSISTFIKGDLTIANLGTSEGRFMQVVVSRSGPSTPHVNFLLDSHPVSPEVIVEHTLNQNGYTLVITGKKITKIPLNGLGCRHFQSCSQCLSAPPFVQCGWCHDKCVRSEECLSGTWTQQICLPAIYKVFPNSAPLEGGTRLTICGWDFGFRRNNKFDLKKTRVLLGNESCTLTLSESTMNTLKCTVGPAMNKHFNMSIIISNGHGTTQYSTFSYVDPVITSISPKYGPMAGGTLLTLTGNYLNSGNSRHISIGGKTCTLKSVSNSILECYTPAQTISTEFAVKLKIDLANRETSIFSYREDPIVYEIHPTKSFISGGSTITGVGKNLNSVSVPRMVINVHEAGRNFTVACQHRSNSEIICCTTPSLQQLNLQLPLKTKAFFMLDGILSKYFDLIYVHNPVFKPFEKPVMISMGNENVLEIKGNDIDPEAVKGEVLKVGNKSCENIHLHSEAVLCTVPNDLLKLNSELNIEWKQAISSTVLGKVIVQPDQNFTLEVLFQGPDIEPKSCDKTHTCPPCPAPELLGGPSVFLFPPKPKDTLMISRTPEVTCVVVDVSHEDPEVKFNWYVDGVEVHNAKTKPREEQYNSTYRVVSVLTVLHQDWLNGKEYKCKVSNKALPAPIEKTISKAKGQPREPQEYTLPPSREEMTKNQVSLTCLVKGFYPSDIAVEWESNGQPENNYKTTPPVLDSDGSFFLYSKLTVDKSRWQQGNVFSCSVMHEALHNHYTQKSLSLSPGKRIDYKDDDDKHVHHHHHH
Method: (§3) Wells of 96-well EIA/RIA high binding plates (Costar, #2592) are coated with 100 μL of 1 μg/mL human c-Met extracellular domain (ECD)-Fc-Flis fusion (SEQ ID NO:72), RON-ECD-Fc (R&D Systems, #1947-MS), or PlexinA2-ECD-Fc (Abnova, Taipei, Taiwan #H00005362-P01) in coating buffer (BioFX Labs, # COAT-1000-01) overnight at 4° C. […] After the plates are washed, 100 μL/well of substrate solution (BioFx, #TMBW-1000-01) are added and the plates are incubated for 10 min. at room temperature. 100 μL/well of stop solution (BioFx, # LSTP-1000-01) are added to stop the reaction. The colorimetric signals are developed and read at 450 nm using a SpectraMax 190 plate reader (Molecular Devices, Sunnyvale, Calif.). c-Met antibody binding to c-Met, RON and PlexinA2 ECDs is proportional to color signal production.

Human c-Met-Flis-Fc ECD [7] = target: T4, Human c-Met-Flis-Fc ECD; experiment: ELISA, coated ECD-Fc, antibody 0.002 ng/mL
Method: as §3

Human c-Met-Flis-Fc ECD [8] = target: T4, Human c-Met-Flis-Fc ECD; experiment: ELISA, coated ECD-Fc, antibody 0.010 ng/mL
Method: as §3

Human c-Met-Flis-Fc ECD [9] = target: T4, Human c-Met-Flis-Fc ECD; experiment: ELISA, coated ECD-Fc, antibody 0.060 ng/mL
Method: as §3

Human c-Met-Flis-Fc ECD [10] = target: T4, Human c-Met-Flis-Fc ECD; experiment: ELISA, coated ECD-Fc, antibody 0.357 ng/mL
Method: as §3

Human c-Met-Flis-Fc ECD [11] = target: T4, Human c-Met-Flis-Fc ECD; experiment: ELISA, coated ECD-Fc, antibody 2.143 ng/mL
Method: as §3

Human c-Met-Flis-Fc ECD [12] = target: T4, Human c-Met-Flis-Fc ECD; experiment: ELISA, coated ECD-Fc, antibody 12.860 ng/mL
Method: as §3

Human c-Met-Flis-Fc ECD [13] = target: T4, Human c-Met-Flis-Fc ECD; experiment: ELISA, coated ECD-Fc, antibody 77.160 ng/mL
Method: as §3

Human c-Met-Flis-Fc ECD [14] = target: T4, Human c-Met-Flis-Fc ECD; experiment: ELISA, coated ECD-Fc, antibody 462.963 ng/mL
Method: as §3

Human c-Met-Flis-Fc ECD [15] = target: T4, Human c-Met-Flis-Fc ECD; experiment: ELISA, coated ECD-Fc, antibody 2777.778 ng/mL
Method: as §3

Human c-Met-Flis-Fc ECD [16] = target: T4, Human c-Met-Flis-Fc ECD; experiment: ELISA, coated ECD-Fc, antibody 16666.667 ng/mL
Method: as §3

Human c-Met-Flis-Fc ECD [17] = target: T4, Human c-Met-Flis-Fc ECD; experiment: ELISA, coated ECD-Fc, antibody 100000.000 ng/mL
Method: as §3

Human c-Met-Flis-Fc ECD [18] = target: T4, Human c-Met-Flis-Fc ECD; experiment: SPR Biacore, antibody captured, ECD-Fc analyte, 1:1 model
Method: as §1, §2

[19] = target: T5, Cynomolgus Monkey c-Met-Flis-Fc ECD (cynomolgus monkey); experiment: as above
T5 construct: also called Cynomolgus Monkey cMet-ECD-Fc-Flis; cynomolgus monkey c-Met ECD
T5 sequence (chain, as listed by the source limits assumed): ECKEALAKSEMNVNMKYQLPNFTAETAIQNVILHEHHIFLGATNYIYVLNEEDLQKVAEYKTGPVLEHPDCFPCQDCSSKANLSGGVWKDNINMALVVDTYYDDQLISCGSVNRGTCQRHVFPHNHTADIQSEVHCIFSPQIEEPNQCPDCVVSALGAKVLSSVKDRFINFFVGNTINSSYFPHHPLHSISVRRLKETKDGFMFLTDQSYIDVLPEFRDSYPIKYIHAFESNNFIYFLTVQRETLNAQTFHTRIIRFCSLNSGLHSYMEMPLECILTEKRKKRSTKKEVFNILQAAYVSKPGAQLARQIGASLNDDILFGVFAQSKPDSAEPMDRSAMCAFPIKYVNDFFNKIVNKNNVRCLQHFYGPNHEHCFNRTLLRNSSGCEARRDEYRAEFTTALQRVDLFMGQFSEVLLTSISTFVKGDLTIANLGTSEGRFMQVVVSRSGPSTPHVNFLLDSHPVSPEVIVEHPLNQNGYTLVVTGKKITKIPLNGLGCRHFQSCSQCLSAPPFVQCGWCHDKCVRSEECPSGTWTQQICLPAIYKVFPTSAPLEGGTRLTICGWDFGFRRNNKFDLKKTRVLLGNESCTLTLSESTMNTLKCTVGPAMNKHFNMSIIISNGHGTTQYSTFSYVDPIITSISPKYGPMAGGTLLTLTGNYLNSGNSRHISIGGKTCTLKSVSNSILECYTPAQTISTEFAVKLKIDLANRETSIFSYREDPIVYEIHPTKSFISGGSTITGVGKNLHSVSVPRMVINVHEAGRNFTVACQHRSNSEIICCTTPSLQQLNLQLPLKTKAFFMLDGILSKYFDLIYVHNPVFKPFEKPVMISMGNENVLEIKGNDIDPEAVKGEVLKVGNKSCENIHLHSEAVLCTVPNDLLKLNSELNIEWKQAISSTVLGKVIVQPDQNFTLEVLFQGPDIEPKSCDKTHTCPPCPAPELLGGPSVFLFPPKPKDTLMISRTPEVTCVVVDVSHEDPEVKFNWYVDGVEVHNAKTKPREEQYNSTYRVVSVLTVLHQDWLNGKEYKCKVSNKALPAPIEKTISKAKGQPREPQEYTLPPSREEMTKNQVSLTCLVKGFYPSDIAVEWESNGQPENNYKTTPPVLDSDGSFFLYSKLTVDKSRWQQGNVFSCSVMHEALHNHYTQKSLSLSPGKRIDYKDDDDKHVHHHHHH
Method: as §1, §2

T1 sequence (P08581 25-1390): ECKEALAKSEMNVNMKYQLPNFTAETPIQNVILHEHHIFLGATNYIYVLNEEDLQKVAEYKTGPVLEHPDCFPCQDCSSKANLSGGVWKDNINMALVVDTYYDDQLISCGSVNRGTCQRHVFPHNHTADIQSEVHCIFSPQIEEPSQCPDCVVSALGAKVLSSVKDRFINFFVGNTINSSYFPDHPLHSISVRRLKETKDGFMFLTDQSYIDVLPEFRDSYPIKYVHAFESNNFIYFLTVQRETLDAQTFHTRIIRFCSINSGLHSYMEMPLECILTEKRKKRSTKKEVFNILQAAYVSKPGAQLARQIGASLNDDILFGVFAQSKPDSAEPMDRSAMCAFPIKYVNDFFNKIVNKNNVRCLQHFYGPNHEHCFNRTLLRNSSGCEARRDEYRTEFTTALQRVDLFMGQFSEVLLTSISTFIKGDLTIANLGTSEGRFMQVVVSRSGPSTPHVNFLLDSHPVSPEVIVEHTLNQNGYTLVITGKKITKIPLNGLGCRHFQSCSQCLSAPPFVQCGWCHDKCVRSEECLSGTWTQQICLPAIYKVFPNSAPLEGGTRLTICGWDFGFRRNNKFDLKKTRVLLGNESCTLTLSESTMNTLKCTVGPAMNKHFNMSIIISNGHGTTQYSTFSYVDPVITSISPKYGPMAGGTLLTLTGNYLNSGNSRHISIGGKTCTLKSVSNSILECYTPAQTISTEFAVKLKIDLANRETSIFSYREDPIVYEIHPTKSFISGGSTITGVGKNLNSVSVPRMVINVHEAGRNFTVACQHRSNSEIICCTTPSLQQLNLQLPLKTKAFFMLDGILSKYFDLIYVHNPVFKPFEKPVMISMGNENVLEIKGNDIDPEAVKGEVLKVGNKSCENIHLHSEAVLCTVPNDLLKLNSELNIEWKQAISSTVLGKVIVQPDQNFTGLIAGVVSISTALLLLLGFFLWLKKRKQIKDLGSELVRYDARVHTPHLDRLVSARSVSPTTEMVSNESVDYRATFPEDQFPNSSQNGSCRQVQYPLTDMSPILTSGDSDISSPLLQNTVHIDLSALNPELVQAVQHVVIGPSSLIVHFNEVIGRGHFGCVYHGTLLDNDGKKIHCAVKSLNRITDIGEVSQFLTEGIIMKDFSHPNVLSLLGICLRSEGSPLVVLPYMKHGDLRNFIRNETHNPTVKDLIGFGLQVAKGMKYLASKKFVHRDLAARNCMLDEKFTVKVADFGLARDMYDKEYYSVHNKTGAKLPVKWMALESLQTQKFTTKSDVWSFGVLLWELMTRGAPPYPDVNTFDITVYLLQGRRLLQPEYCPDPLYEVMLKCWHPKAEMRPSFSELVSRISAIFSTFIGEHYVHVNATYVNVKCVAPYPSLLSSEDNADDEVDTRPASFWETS

3H-Thymidine Incorporation in Caki-1 Cells in the Absence of HGF (AVG CPM), antibody dose 0.1 ng/mL (human c-Met [1]): 16100 CPM | 3H-Thymidine Incorporation in Caki-1 Cells in the Absence of HGF (AVG CPM), antibody dose 0.4 ng/mL (human c-Met [1]): 14600 CPM | 3H-Thymidine Incorporation in Caki-1 Cells in the Absence of HGF (AVG CPM), antibody dose 2.6 ng/mL (human c-Met [1]): 14100 CPM | 3H-Thymidine Incorporation in Caki-1 Cells in the Absence of HGF (AVG CPM), antibody dose 15.4 ng/mL (human c-Met [1]): 13700 CPM | 3H-Thymidine Incorporation in Caki-1 Cells in the Absence of HGF (AVG CPM), antibody dose 92.6 ng/mL (human c-Met [1]): 12800 CPM | 3H-Thymidine Incorporation in Caki-1 Cells in the Absence of HGF (AVG CPM), antibody dose 555.6 ng/mL (human c-Met [1]): 13500 CPM | 3H-Thymidine Incorporation in Caki-1 Cells in the Absence of HGF (AVG CPM), antibody dose 3333.3 ng/mL (human c-Met [1]): 13200 CPM | 3H-Thymidine Incorporation in Caki-1 Cells in the Absence of HGF (AVG CPM), antibody dose 20000.0 ng/mL (human c-Met [1]): 13200 CPM | 3H-Thymidine Incorporation in Primary Human Hepatocytes in the Absence of HGF (average), dose 0.0032 ug/mL (human c-Met [2]): 736 | 3H-Thymidine Incorporation in Primary Human Hepatocytes in the Absence of HGF (average), dose 0.016 ug/mL (human c-Met [2]): 770 | 3H-Thymidine Incorporation in Primary Human Hepatocytes in the Absence of HGF (average), dose 0.08 ug/mL (human c-Met [2]): 792 | 3H-Thymidine Incorporation in Primary Human Hepatocytes in the Absence of HGF (average), dose 0.4 ug/mL (human c-Met [2]): 802 | 3H-Thymidine Incorporation in Primary Human Hepatocytes in the Absence of HGF (average), dose 2 ug/mL (human c-Met [2]): 892 | 3H-Thymidine Incorporation in Primary Human Hepatocytes in the Absence of HGF (average), dose 10 ug/mL (human c-Met [2]): 1040 | Tubular Morphogenesis Agonist activity (fold stimulation) in HepG2 cells, antibody 50 ug/ml (human c-Met [3]): 1.2 fold stimulation | Percent of DU145 Cells in Colonies (scatter assay), antibody 20 ug/mL (human c-Met [4]): 23.3% | Staurosporine-Induced Apoptosis in Caki-1 Cells, Average A450 nm, antibody dose 3 ng/mL (human c-Met [5]): 1.09 A450 nm | Staurosporine-Induced Apoptosis in Caki-1 Cells, Average A450 nm, antibody dose 30 ng/mL (human c-Met [5]): 1.02 A450 nm | Staurosporine-Induced Apoptosis in Caki-1 Cells, Average A450 nm, antibody dose 300 ng/mL (human c-Met [5]): 0.97 A450 nm | Staurosporine-Induced Apoptosis in Caki-1 Cells, Average A450 nm, antibody dose 3000 ng/mL (human c-Met [5]): 0.92 A450 nm | Staurosporine-Induced Apoptosis in Caki-1 Cells, Average A450 nm, antibody dose 30000 ng/mL (human c-Met [5]): 0.96 A450 nm
B1: C8-6 (antibody, human IgG2, kappa, V domains shown)
VH: QVQLVQSGAEVKKPGASVKVSCKASGYTFTDYYMHWVRQAPGQGLEWMGRVNPNRGGTTYNQKFEGRVTMTTDTSTSTAYMELRSLRSDDTAVYYCARTNWLDYWGQGTTVTVSS
VL: DIQMTQSPSSLSASVGDRVTITCSVSSSVSSIYLHWYQQKPGKAPKLLIYSTSNLASGVPSRFSGSGSGTDFTLTISSLQPEDFATYYCIQYSGYPLTFGGGTKVEIKR

binding result (Rat c-Met-Flis-Fc ECD): no binding | binding result (mouse c-Met ECD): no binding (tested: 100 nM) | Average A450 nm (Human c-Met-Flis-Fc ECD [6]): 0.3 A450 nm | Average A450 nm (Human c-Met-Flis-Fc ECD [7]): 0.317 A450 nm | Average A450 nm (Human c-Met-Flis-Fc ECD [8]): 0.317 A450 nm | Average A450 nm (Human c-Met-Flis-Fc ECD [9]): 0.484 A450 nm | Average A450 nm (Human c-Met-Flis-Fc ECD [10]): 0.902 A450 nm | Average A450 nm (Human c-Met-Flis-Fc ECD [11]): 2.86 A450 nm | Average A450 nm (Human c-Met-Flis-Fc ECD [12]): 4 A450 nm | Average A450 nm (Human c-Met-Flis-Fc ECD [13]): 4 A450 nm | Average A450 nm (Human c-Met-Flis-Fc ECD [14]): 4 A450 nm | Average A450 nm (Human c-Met-Flis-Fc ECD [15]): 4 A450 nm | Average A450 nm (Human c-Met-Flis-Fc ECD [16]): 4 A450 nm | Average A450 nm (Human c-Met-Flis-Fc ECD [17]): 4 A450 nm | Kd (Human c-Met-Flis-Fc ECD [18]): < 0.1 nM | Kd [19]: < 0.2 nM
B2: C8-H241 (antibody, human IgG2, kappa, V domains shown)
VH: QVQLVQSGAEVKKPGASVKVSCKASGYTFTDYYMHWVRQAPGQGLEWMGRVNPNRRGTTYNQKFEGRVTMTTDTSTSTAYMELRSLRSDDTAVYYCARANWLDYWGQGTTVTVSS
VL: DIQMTQSPSSLSASVGDRVTITCSVSSSVSSIYLHWYQQKPGKAPKLLIYSTSNLASGVPSRFSGSGSGTDFTLTISSLQPEDFATYYCQVYSGYPLTFGGGTKVEIKR
notes: Called IgG4, kappa; also called Mab C8-H241
